# Measurements reported in patent US20120328512A1 (BRACCO IMAGING S P A, published 2012).
# Bridge positions count the residues as written; N and C are the ends. Square brackets hold non-standard residues; d marks the D form. * marks the point of attachment. αGalNAc = CC(=O)N[C@@H]1[C@@H](O)[C@@H](O)[C@@H](CO)O[C@@H]1*; Phe(3,4-F2) = N[C@@H](Cc1ccc(F)c(F)c1)C(=O)O; Thf2ca = tetrahydrofuran-2-carboxylic acid; Phe(4-F) = N[C@@H](Cc1ccc(F)cc1)C(=O)O; Hyp = O=C(O)[C@@H]1C[C@@H](O)CN1; Cha = N[C@@H](CC1CCCCC1)C(=O)O; AEEA = NCCOCCOCC(=O)O
# T1: fibrin (human fibrinogen clotted with human thrombin on glass coverslips) (human, UniProt P02671 36-629; P02675 45-491; P02679 27-437, limits assumed)
# T1 construct: also called fibrin-coated coverslips
# T1 sequence (looked up) 1: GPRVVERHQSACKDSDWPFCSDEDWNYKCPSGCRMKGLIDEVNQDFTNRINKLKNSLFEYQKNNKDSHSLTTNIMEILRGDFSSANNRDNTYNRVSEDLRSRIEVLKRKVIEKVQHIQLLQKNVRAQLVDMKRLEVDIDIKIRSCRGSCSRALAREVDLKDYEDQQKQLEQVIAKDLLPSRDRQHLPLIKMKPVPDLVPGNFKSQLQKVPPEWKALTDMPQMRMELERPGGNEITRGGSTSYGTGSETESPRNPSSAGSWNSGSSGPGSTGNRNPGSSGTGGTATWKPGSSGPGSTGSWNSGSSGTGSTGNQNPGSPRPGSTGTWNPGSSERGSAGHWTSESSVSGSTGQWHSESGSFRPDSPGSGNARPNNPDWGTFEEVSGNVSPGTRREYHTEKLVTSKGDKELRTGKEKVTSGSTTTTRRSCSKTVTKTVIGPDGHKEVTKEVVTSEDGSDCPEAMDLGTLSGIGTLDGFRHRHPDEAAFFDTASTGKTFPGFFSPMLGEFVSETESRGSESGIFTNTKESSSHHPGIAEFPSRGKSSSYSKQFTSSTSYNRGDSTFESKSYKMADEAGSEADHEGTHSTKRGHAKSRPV
# T1 sequence (looked up) 2: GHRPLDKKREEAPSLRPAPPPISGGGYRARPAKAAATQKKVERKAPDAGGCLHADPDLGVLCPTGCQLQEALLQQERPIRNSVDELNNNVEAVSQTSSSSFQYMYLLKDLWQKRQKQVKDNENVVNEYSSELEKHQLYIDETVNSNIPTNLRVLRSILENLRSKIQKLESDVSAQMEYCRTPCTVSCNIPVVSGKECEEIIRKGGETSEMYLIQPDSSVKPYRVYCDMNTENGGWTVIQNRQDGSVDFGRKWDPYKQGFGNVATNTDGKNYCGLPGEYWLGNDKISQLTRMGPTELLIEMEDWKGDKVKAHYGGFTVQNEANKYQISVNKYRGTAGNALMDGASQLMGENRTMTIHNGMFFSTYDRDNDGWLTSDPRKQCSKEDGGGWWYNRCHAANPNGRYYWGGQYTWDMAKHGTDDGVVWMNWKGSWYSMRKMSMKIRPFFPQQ
# T1 sequence (looked up) 3: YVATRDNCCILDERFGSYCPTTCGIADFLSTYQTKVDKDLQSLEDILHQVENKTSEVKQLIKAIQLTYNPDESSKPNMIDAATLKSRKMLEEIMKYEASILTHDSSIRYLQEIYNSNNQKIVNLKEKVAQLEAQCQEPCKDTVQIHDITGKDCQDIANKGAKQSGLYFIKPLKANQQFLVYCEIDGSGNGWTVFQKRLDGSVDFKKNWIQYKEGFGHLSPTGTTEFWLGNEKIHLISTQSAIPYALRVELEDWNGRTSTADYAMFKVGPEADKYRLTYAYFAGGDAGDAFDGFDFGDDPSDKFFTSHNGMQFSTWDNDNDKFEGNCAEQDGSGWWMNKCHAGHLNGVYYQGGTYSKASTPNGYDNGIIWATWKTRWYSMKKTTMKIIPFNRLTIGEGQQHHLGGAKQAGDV
# T2: DDE
# T2 chain 1: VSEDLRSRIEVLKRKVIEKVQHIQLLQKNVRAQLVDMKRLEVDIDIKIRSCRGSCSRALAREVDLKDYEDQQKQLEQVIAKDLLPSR
# T2 chain 2: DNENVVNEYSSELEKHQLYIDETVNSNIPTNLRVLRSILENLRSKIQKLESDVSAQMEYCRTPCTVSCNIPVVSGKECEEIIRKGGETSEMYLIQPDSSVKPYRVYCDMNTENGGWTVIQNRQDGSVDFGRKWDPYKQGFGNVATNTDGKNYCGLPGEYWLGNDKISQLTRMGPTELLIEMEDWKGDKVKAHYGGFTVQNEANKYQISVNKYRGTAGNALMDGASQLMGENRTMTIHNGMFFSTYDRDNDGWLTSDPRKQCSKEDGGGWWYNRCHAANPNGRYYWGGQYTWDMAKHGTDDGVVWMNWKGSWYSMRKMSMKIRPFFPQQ
# T2 chain 3: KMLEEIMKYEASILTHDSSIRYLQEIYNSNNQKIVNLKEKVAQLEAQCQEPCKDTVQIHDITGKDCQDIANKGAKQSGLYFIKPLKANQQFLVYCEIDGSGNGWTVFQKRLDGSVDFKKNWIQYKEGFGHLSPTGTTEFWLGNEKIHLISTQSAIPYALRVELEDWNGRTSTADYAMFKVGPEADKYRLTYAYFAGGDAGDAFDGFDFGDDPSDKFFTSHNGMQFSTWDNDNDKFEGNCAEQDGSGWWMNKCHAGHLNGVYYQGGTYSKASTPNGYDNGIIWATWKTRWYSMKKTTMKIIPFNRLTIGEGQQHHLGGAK
# T2 chain 4: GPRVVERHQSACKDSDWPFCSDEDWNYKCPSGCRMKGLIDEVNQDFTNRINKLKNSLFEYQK
# T2 chain 5: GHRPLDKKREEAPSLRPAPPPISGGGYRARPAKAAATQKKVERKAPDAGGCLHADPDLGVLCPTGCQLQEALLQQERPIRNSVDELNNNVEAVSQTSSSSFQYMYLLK
# T2 chain 6: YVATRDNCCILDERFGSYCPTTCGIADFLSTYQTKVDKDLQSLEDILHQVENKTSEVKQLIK
# Biological target: T1, fibrin (human fibrinogen clotted with …)
# Test: flow chamber test of targeted microvesicles on fibrin-coated coverslips
# Description: Five mL of a solution of BSA 1% w/v in PBS pH 7.4 were added into a 60 mm Petri Dish containing one coverslip, and incubated at 37° C. for 15 min. Then the coverslip was washed three times with 5 ml of Tween 80/PBS (0.1%, v:v). Twenty five μL of human thrombin solution at 5 U/mL were added per mL of human fibrinogen solution (0.5 mg/mL in 50 mM sodium phosphate, NaCl 280 mM, pH 7.4) and delicately mixed. Five mL of this solution were immediately distributed in each Petri dish. The coverslips were incubated for one hour at 37° C. and then dried overnight at 45° C.
# Binding studies of targeted microvesicles were carried out using a parallel-plate flow chamber (FCS2, Bioptech Inc., Butler, Pa., USA) with a chamber gasket of 0.25 mm in thickness, with a customized adapter for upside-down chamber inversion. The coated coverslip was inserted as a plate of the flow chamber. Gas-filled Microvesicles (5×10⁶ bubbles/mL in 50% human plasma in PBS) were drawn through the flow chamber using an adjustable infusion pump (Auto Syringe® AS50 Infusion Pump, Baxter, Deerfield, Ill., USA) with a 60 mL syringe (Terumo). The pump flow rate was adjusted to 1 mL/min to obtain the desired shear rate of about 114 s⁻¹. After 10 minutes, the flow was stopped and pictures were taken randomly on different positions on the coverslip (on surfaces of about 0.025 mm²) using a 40× objective and a CCD monochrome camera (F-View II, Soft Imaging Systems, Germany) connected to an inverted Olympus IX 50 microscope. The number of microvesicles on each picture was determined, averaged with respect to the total number of pictures and the obtained value was then divided by ten (to obtain the “slope”, i.e. the average amount of bound microvesicles per minute).
row,Binder,binding result
1,Ac-WQPCPAESWTFCWDPGGGK-NH2 (disulfide 4-12; not fully specified (residue 19); printed as Ac-WQPC*PAESWTFC*WDPGGGK(DSPE-PG4-Glut)-NH2) [Seq005-PL1],binds

# Biological target: DDE
# Test: competition fluorescence polarization: unlabeled peptide against Seq000-CF5 tracer on DDE; n = 2
row,Binder,Rel IC50 (ratio to the reference peptide)
1,"Ac-WQPCPWESWT[Phe(3,4-F2)]CWDPGGGK-NH2 (disulfide 4-12) [Seq020-P]",0.428
2,H-GWQPCPWESWTFCWDPGGGK-NH2 (disulfide 5-13) [Seq021-P],0.622
3,Ac-S(αGalNAc)WQPCPWESWTFCWDPGGGK-NH2 (disulfide 5-13) [Seq027-P],0.559
4,Thf2ca-WQPCPWESWTFCWDPGGGK-NH2 (disulfide 4-12) [Seq028-P],0.616
5,Ac-GWQPCPWESWTFCWDPGGGK-NH2 (disulfide 5-13) [Seq016-P],1.04
6,Ac-WQPCPWESWT[Cha]CWDPGGGK-NH2 (disulfide 4-12) [Seq018-P],0.494
7,Ac-WQPCPWESWT[Phe(4-F)]CWDPGGGK-NH2 (disulfide 4-12) [Seq019-P],0.601

# Biological target: T2, DDE
# Test: as above
row,Binder,Rel IC50
1,Ac-S(αGalNAc)[AEEA]WQPCPWESWTFCWDPGGGK-NH2 (disulfide 6-14; SMILES CC(=O)N[C@H]1[C@@H](OC[C@H](NC(C)=O)C(=O)NCCOCCOCC(=O)N[C@@H](Cc2c[nH]c3ccccc23)C(=O)N[C@@H](CCC(N)=O)C(=O)N2CCC[C@H]2C(=O)N[C@H]2CSSC[C@@H](C(=O)N[C@@H](Cc3c[nH]c4ccccc34)C(=O)N[C@@H](CC(=O)O)C(=O)N3CCC[C@H]3C(=O)NCC(=O)NCC(=O)NCC(=O)N[C@@H](CCCCN)C(N)=O)NC(=O)[C@H](Cc3ccccc3)NC(=O)[C@H]([C@@H](C)O)NC(=O)[C@H](Cc3c[nH]c4ccccc34)NC(=O)[C@H](CO)NC(=O)[C@H](CCC(=O)O)NC(=O)[C@H](Cc3c[nH]c4ccccc34)NC(=O)[C@@H]3CCCN3C2=O)O[C@H](CO)[C@H](O)[C@@H]1O) [Seq031-P],1.15 ratio to the reference peptide
2,"Ac-WQPC[Hyp]WESWTFCWDPGGGK-NH2 (disulfide 4-12, also called Ac-WQPC*-Hypt4-WESWTFC*WDPGGGK-NH2) [Seq032-P]",0.55 ratio to the reference peptide
3,Ac-RRGGWQPC[Hyp]WESWTFCWDPGGGK-NH2 (disulfide 8-16; SMILES CC(=O)N[C@@H](CCCNC(=N)N)C(=O)N[C@@H](CCCNC(=N)N)C(=O)NCC(=O)NCC(=O)N[C@@H](Cc1c[nH]c2ccccc12)C(=O)N[C@@H](CCC(N)=O)C(=O)N1CCC[C@H]1C(=O)N[C@H]1CSSC[C@@H](C(=O)N[C@@H](Cc2c[nH]c3ccccc23)C(=O)N[C@@H](CC(=O)O)C(=O)N2CCC[C@H]2C(=O)NCC(=O)NCC(=O)NCC(=O)N[C@@H](CCCCN)C(N)=O)NC(=O)[C@H](Cc2ccccc2)NC(=O)[C@H]([C@@H](C)O)NC(=O)[C@H](Cc2c[nH]c3ccccc23)NC(=O)[C@H](CO)NC(=O)[C@H](CCC(=O)O)NC(=O)[C@H](Cc2c[nH]c3ccccc23)NC(=O)[C@@H]2C[C@@H](O)CN2C1=O) [Seq047-P],0.75 ratio to the reference peptide
4,Ac-WQPCPAESWTFCWDPGGGK-NH2 (disulfide 4-12; SMILES CC(=O)N[C@@H](Cc1c[nH]c2ccccc12)C(=O)N[C@@H](CCC(N)=O)C(=O)N1CCC[C@H]1C(=O)N[C@H]1CSSC[C@@H](C(=O)N[C@@H](Cc2c[nH]c3ccccc23)C(=O)N[C@@H](CC(=O)O)C(=O)N2CCC[C@H]2C(=O)NCC(=O)NCC(=O)NCC(=O)N[C@@H](CCCCN)C(N)=O)NC(=O)[C@H](Cc2ccccc2)NC(=O)[C@H]([C@@H](C)O)NC(=O)[C@H](Cc2c[nH]c3ccccc23)NC(=O)[C@H](CO)NC(=O)[C@H](CCC(=O)O)NC(=O)[C@H](C)NC(=O)[C@@H]2CCCN2C1=O) [Seq005-P],0.875 ratio to the reference peptide
5,Ac-GPPGWQPCPWESWTFCWDPGGGK-NH2 (disulfide 8-16) [Seq014-P],0.235 ratio to the reference peptide
6,Ac-GGRGWQPCPWESWTFCWDPGGGK-NH2 (disulfide 8-16) [Seq015-P],0.37 ratio to the reference peptide
7,Ac-SGSG[AEEA]WQPCPWESWTFCWDPGGGK-NH2 (disulfide 9-17) [Seq017-P],0.714 ratio to the reference peptide
